Experimental findings from the supplement of paper PMC9112550, “Optimization of the antimicrobial peptide Bac7 by deep mutational scanning” (BMC Biology, 2022) are described below.

The data set has as its system Escherichia coli TOP10. Description: shrunken log2 fold change of peptide-encoding DNA abundance (4.5 h post-induction vs induction); higher = less antimicrobial activity (less host growth inhibition). As to conditions: time post-induction: 4.5 h; library: site-saturation at positions 5, 18, 19, 20.
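Note: peptides expressed intracellularly from a pBAD plasmid library in pooled LB shake-flask culture, induced with 0.3% L-arabinose, DNA abundance read by NGS, three biological replicates, DESeq2 with apeglm shrinkage.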

For the sequence RRIRHRPPRLPRPRPRPVIMPRP, the “shrunken log2 fold change” value is -1.
With RRIRNRPPRLPRPRPRPSWEPRP, the “shrunken log2 fold change” value was -0.32.
The result for RRIRMRPPRLPRPRPRPPEDPRP reads 1.66; that for RRIRMRPPRLPRPRPRPMIPPRP, -0.448.
As for RRIRWRPPRLPRPRPRPCHSPRP, the figure is -0.286; as for RRIRWRPPRLPRPRPRPTPTPRP, 0.22; as for RRIRQRPPRLPRPRPRPNGFPRP, -0.258.
As for RRIRCRPPRLPRPRPRPPSPPRP, the figure is 0.724.
On to RRIRERPPRLPRPRPRPPDFPRP, for which the “shrunken log2 fold change” value came to 0.00276.
On to RRIRMRPPRLPRPRPRPKMMPRP, for which the “shrunken log2 fold change” value was 0.351.
The result for RRIRDRPPRLPRPRPRPPGWPRP reads 1.66; that for RRIRRRPPRLPRPRPRPLITPRP, -0.0767.
Take RRIRDRPPRLPRPRPRPLEPPRP: the “shrunken log2 fold change” value was 0.239.
With RRIRIRPPRLPRPRPRPQWEPRP, the “shrunken log2 fold change” value is -0.0938.
Turning to RRIRHRPPRLPRPRPRPYLPPRP, the “shrunken log2 fold change” value is -0.618.
As to RRIRPRPPRLPRPRPRPTNSPRP, the “shrunken log2 fold change” value was -0.195.
As for RRIRLRPPRLPRPRPRPVFWPRP, the figure is 0.247; as for RRIRLRPPRLPRPRPRPRQYPRP, -0.075.
As to RRIRDRPPRLPRPRPRPAPEPRP, the “shrunken log2 fold change” value was determined as 0.225.
Take RRIRCRPPRLPRPRPRPWGTPRP: the “shrunken log2 fold change” value is -0.0869.
As for RRIRDRPPRLPRPRPRPAWSPRP, the figure is 0.168; as for RRIRRRPPRLPRPRPRPHDAPRP, 0.197.
For the sequence RRIRVRPPRLPRPRPRPWQHPRP, the “shrunken log2 fold change” value worked out at 0.0882.
As for RRIRLRPPRLPRPRPRPDLTPRP, the figure is 0.169; as for RRIRERPPRLPRPRPRPHDMPRP, -0.0911; as for RRIRQRPPRLPRPRPRPMCFPRP, -0.352.
As for RRIRIRPPRLPRPRPRPETMPRP, the figure is -0.108; as for RRIRIRPPRLPRPRPRPGDNPRP, -0.317.
Consider RRIRGRPPRLPRPRPRPGQDPRP, for which the “shrunken log2 fold change” value was 0.605.
The result for RRIRVRPPRLPRPRPRPYDRPRP reads -0.00895; that for RRIRWRPPRLPRPRPRPNKLPRP, -0.277; that for RRIRTRPPRLPRPRPRPKEFPRP, -0.0177.
The result for RRIRFRPPRLPRPRPRPPTLPRP reads -0.0735.
As for RRIRVRPPRLPRPRPRPTFSPRP, the figure is -0.3.
Consider RRIRCRPPRLPRPRPRPKWIPRP, for which the “shrunken log2 fold change” value is -0.366.
The result for RRIRWRPPRLPRPRPRPRIGPRP reads 0.138.
As for RRIRNRPPRLPRPRPRPPCRPRP, the figure is -0.0266.
RRIRCRPPRLPRPRPRPCGTPRP: the “shrunken log2 fold change” value is -0.306.
As for RRIRSRPPRLPRPRPRPWCTPRP, the “shrunken log2 fold change” value was -0.255.
RRIRERPPRLPRPRPRPMQDPRP: the “shrunken log2 fold change” value came out at 0.306.
In the case of RRIRQRPPRLPRPRPRPVQVPRP, the “shrunken log2 fold change” value was -0.0564.
As for RRIRLRPPRLPRPRPRPMRWPRP, the figure is 0.278; as for RRIRDRPPRLPRPRPRPSDHPRP, -0.422; as for RRIRNRPPRLPRPRPRPIMNPRP, -0.619.
Regarding RRIRVRPPRLPRPRPRPCVVPRP, the “shrunken log2 fold change” value turned out to be 0.0226.
As for RRIRTRPPRLPRPRPRPKPCPRP, the figure is -0.126.
The result for RRIRERPPRLPRPRPRPAYMPRP reads -0.505.
Take RRIRHRPPRLPRPRPRPMYRPRP: the “shrunken log2 fold change” value was -0.0948.
For RRIRQRPPRLPRPRPRPQPIPRP, the “shrunken log2 fold change” value came to 0.136.
As for RRIRLRPPRLPRPRPRPSDGPRP, the figure is -0.162; as for RRIRRRPPRLPRPRPRPIHKPRP, 0.27.
Regarding RRIRRRPPRLPRPRPRPREHPRP, the “shrunken log2 fold change” value is 0.673.
As for RRIRFRPPRLPRPRPRPQLNPRP, the figure is -0.53; as for RRIRDRPPRLPRPRPRPEEDPRP, 0.012; as for RRIRQRPPRLPRPRPRPRDKPRP, 0.00325.
The result for RRIRYRPPRLPRPRPRPLMSPRP reads -0.0164; that for RRIRVRPPRLPRPRPRPRYTPRP, 0.0365; that for RRIRMRPPRLPRPRPRPQIYPRP, -0.464.
As for RRIRRRPPRLPRPRPRPKLDPRP, the figure is 0.523; as for RRIRVRPPRLPRPRPRPQLSPRP, 0.132.
In the case of RRIRARPPRLPRPRPRPMVCPRP, the “shrunken log2 fold change” value was found to be 0.396.
Consider RRIRHRPPRLPRPRPRPANGPRP, for which the “shrunken log2 fold change” value was -0.0837.
For RRIRCRPPRLPRPRPRPCFHPRP, the “shrunken log2 fold change” value is -0.597.
Turning to RRIRQRPPRLPRPRPRPKGRPRP, the “shrunken log2 fold change” value turned out to be 0.0377.
Turning to RRIRFRPPRLPRPRPRPNYMPRP, the “shrunken log2 fold change” value was -0.254.
The result for RRIRNRPPRLPRPRPRPPMCPRP reads 0.154; that for RRIRWRPPRLPRPRPRPRLGPRP, 0.252.
As for RRIRQRPPRLPRPRPRPVVLPRP, the figure is -0.227; as for RRIRDRPPRLPRPRPRPQEPPRP, -0.0802; as for RRIRTRPPRLPRPRPRPCFDPRP, -0.0899.
The result for RRIRCRPPRLPRPRPRPIKDPRP reads -0.533.
With RRIRVRPPRLPRPRPRPHYHPRP, the “shrunken log2 fold change” value was -0.397.
The result for RRIRGRPPRLPRPRPRPWNRPRP reads -0.0647; that for RRIRYRPPRLPRPRPRPTFFPRP, -0.0709; that for RRIRFRPPRLPRPRPRPYYFPRP, -0.706.
Regarding RRIRLRPPRLPRPRPRPPSVPRP, the “shrunken log2 fold change” value is -0.0845.
The result for RRIRYRPPRLPRPRPRPNHYPRP reads -0.739; that for RRIRPRPPRLPRPRPRPYKTPRP, 0.001; that for RRIRDRPPRLPRPRPRPYDDPRP, -0.00157.
Consider RRIRYRPPRLPRPRPRPRPWPRP, for which the “shrunken log2 fold change” value turned out to be 0.332.
As for RRIRYRPPRLPRPRPRPMIFPRP, the “shrunken log2 fold change” value was -1.43.
RRIRARPPRLPRPRPRPKLLPRP: the “shrunken log2 fold change” value stood at 0.00678.
The result for RRIRSRPPRLPRPRPRPMRDPRP reads 0.0126; that for RRIRGRPPRLPRPRPRPHTPPRP, 0.339; that for RRIRQRPPRLPRPRPRPDWMPRP, 0.0723.
For RRIRDRPPRLPRPRPRPEDIPRP, the “shrunken log2 fold change” value was determined as 0.0238.
The result for RRIRVRPPRLPRPRPRPWQYPRP reads -0.0599; that for RRIRPRPPRLPRPRPRPMIIPRP, -0.152.
As for RRIRLRPPRLPRPRPRPKKKPRP, the figure is 0.141; as for RRIRMRPPRLPRPRPRPLPYPRP, 0.0635.
The result for RRIRERPPRLPRPRPRPWWQPRP reads -0.0206; that for RRIRSRPPRLPRPRPRPLRTPRP, 0.787.
As for RRIRRRPPRLPRPRPRPYYEPRP, the “shrunken log2 fold change” value is -0.572.
As for RRIRERPPRLPRPRPRPKQAPRP, the figure is 0.156; as for RRIRHRPPRLPRPRPRPDLMPRP, -0.175.
On to RRIRIRPPRLPRPRPRPEACPRP, for which the “shrunken log2 fold change” value was -0.064.
Consider RRIRNRPPRLPRPRPRPVHMPRP, for which the “shrunken log2 fold change” value was -0.0948.
For RRIRDRPPRLPRPRPRPQASPRP, the “shrunken log2 fold change” value was -0.0448.
The result for RRIRVRPPRLPRPRPRPYPTPRP reads -0.398.
As for RRIRLRPPRLPRPRPRPHMFPRP, the figure is -0.356; as for RRIRFRPPRLPRPRPRPIRAPRP, -0.0742; as for RRIRHRPPRLPRPRPRPAMKPRP, 0.0279.
As for RRIRARPPRLPRPRPRPGNDPRP, the “shrunken log2 fold change” value was -0.00116.
As for RRIRWRPPRLPRPRPRPKFPPRP, the figure is 0.944.
The result for RRIRYRPPRLPRPRPRPTCAPRP reads -0.0853.
With RRIRWRPPRLPRPRPRPTLSPRP, the “shrunken log2 fold change” value came to 0.3.
As to RRIRLRPPRLPRPRPRPKQAPRP, the “shrunken log2 fold change” value was 0.152.
With RRIRDRPPRLPRPRPRPWCNPRP, the “shrunken log2 fold change” value was -0.378.
As for RRIRDRPPRLPRPRPRPGQTPRP, the figure is 0.032; as for RRIRLRPPRLPRPRPRPAVAPRP, 0.552; as for RRIRGRPPRLPRPRPRPMQQPRP, 2.08.
With RRIRWRPPRLPRPRPRPKRSPRP, the “shrunken log2 fold change” value turned out to be 0.08.
With RRIRGRPPRLPRPRPRPCCIPRP, the “shrunken log2 fold change” value amounted to 0.214.
As for RRIRPRPPRLPRPRPRPFPKPRP, the figure is 0.166; as for RRIRSRPPRLPRPRPRPVVVPRP, 0.1; as for RRIRRRPPRLPRPRPRPRAVPRP, 0.427.
As for RRIRERPPRLPRPRPRPNWSPRP, the figure is -0.3; as for RRIRGRPPRLPRPRPRPPKWPRP, 0.469; as for RRIRFRPPRLPRPRPRPKMKPRP, 0.0379.
Turning to RRIRQRPPRLPRPRPRPVHRPRP, the “shrunken log2 fold change” value was -0.0635.
Regarding RRIRRRPPRLPRPRPRPDKAPRP, the “shrunken log2 fold change” value was -0.131.
On to RRIRIRPPRLPRPRPRPKCSPRP, for which the “shrunken log2 fold change” value is 0.0422.
As for RRIRWRPPRLPRPRPRPKQCPRP, the figure is 0.31.
Take RRIRFRPPRLPRPRPRPTTIPRP: the “shrunken log2 fold change” value is -0.548.
RRIRQRPPRLPRPRPRPFRFPRP: the “shrunken log2 fold change” value was 0.0421.
